We go through 1 molecule from patent CN110563849A (ANHUI RUBIOX VISION BIOTECHNOLOGY CO LTD, dated 2019).

The target of the experiment is T1, PD-1-mFc (人PD-1胞外区加Fc纯化标签) (human, UniProt Q15116 25-170).
T1 construct: extracellular domain;domain: Fc; also called PD-1抗原; PD-1蛋白; not shown: mFc, Fc purification tag (mouse Fc)
Nature of the experiment: competition ELISA, PD-1-mFc coated, competitor PDL-1-hFc. In general terms: An ELISA detects its analyte on a solid surface through an enzyme-linked reagent.

T1 sequence (Q15116 25-170): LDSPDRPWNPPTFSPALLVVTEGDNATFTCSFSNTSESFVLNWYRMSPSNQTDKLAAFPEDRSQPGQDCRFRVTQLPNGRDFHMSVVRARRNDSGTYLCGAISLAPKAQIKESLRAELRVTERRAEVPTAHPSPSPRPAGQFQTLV

B1: 双特异性抗体Vs3P4 (dsFv-VEGF-linker-PD1-H chain结构) (bispecific antibody, human IgG4 S228P, kappa)
heavy: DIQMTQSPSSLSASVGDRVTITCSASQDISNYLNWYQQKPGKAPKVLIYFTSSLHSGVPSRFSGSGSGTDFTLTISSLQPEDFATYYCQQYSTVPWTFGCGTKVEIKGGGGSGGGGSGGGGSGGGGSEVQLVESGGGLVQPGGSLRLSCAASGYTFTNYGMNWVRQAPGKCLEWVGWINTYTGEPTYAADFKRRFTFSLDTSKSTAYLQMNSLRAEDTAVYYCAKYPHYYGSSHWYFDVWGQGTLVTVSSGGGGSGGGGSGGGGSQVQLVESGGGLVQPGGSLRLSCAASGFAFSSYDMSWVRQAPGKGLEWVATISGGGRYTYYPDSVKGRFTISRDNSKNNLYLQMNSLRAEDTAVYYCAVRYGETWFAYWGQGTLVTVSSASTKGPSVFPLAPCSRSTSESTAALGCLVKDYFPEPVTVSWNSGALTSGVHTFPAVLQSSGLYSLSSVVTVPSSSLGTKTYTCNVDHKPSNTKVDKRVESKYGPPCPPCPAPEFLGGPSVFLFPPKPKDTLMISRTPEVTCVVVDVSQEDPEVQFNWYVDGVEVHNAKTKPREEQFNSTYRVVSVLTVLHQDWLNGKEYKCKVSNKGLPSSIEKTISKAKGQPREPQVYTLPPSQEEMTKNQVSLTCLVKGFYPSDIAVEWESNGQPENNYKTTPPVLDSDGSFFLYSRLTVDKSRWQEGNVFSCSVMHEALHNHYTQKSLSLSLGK
light: DIQMTQSPSSLSASVGDRVTITCRASQDINTYLAWFQQKPGKAPKSLIYRANRLVSGVPSRFSGSGSGTDFTLTISSLQPEDMATYYCLQYDEFPLTFGAGTKLELKRTVAAPSVFIFPPSDEQLKSGTASVVCLLNNFYPREAKVQWKVDNALQSGNSQESVTEQDSKDSTYSLSSTLTLSKADYEKHKVYACEVTHQGLSSPVTKSFNRGEC
notes: Expressed in 293F cells; also called 抗VEGF-抗PD1双特异性抗体
Regarding B1, the binding result is “binds”.
